# Assay results from patent US20210230570.
# Molecular target: plasma purified human AT-III (antithrombin III), in complex with full-length unfractionated heparin (AT-III/UFH)
row,Protein,K0.5-mut/K0.5-wt (against Catalyst Biosciences WT FIXa)
1,FIXa-R318Y/R338E/E410S (protein) chain 1: YNSGKLEEFVQGNLERECMEEKCSFEEAREVFENTERTTEFWKQYVDGDQCESNPCLNGGSCKDDINSYECWCPFGFEGKNCELDVTCNIKNGRCEQFCKNSADNKVVCSCTEGYRLAENQKSCEPAVPFPCGRVSVSQTSKLTR chain 2: VVGGEDAKPGQFPWQVVLNGKVDAFCGGSIVNEKWIVTAAHCVETGVKITVVAGEHNIEETEHTEQKRNVIRIIPHHNYNAAINKYNHDIALLELDEPLVLNSYVTPICIADKEYTNIFLKFGSGYVSGWGRVFHKGYSALVLQYLRVPLVDRATCLESTKFTIYNNMFCAGFHEGGRDSCQGDSGGPHVTEVEGTSFLTGIISWGEECAMKGKYGIYTKVSRYVNWIKSKTKLT,279
2,FIXa-D104N/K106S/Y155F/K228N/K247N/N249S (protein) chain 1: YNSGKLEEFVQGNLERECMEEKCSFEEAREVFENTERTTEFWKQYVDGDQCESNPCLNGGSCKDDINSYECWCPFGFEGKNCELDVTCNIKNGRCEQFCKNSANNSVVCSCTEGYRLAENQKSCEPAVPFPCGRVSVSQTSKLTR chain 2: VVGGEDAKPGQFPWQVVLNGKVDAFCGGSIVNEKWIVTAAHCVETGVNITVVAGEHNIEETEHTEQNRSVIRIIPHHNYNAAINKYNHDIALLELDEPLVLNSYVTPICIADKEYTNIFLKFGSGYVSGWGRVFHKGRSALVLQYLRVPLVDRATCLRSTKFTIYNNMFCAGFHEGGRDSCQGDSGGPHVTEVEGTSFLTGIISWGEECAMKGKYGIYTKVSRYVNWIKEKTKLT,1.6
3,FIXa-D104N/K106S/K228N/K247N/N249S (protein) chain 1: YNSGKLEEFVQGNLERECMEEKCSFEEAREVFENTERTTEFWKQYVDGDQCESNPCLNGGSCKDDINSYECWCPFGFEGKNCELDVTCNIKNGRCEQFCKNSANNSVVCSCTEGYRLAENQKSCEPAVPFPCGRVSVSQTSKLTR chain 2: VVGGEDAKPGQFPWQVVLNGKVDAFCGGSIVNEKWIVTAAHCVETGVNITVVAGEHNIEETEHTEQNRSVIRIIPHHNYNAAINKYNHDIALLELDEPLVLNSYVTPICIADKEYTNIFLKFGSGYVSGWGRVFHKGRSALVLQYLRVPLVDRATCLRSTKFTIYNNMFCAGFHEGGRDSCQGDSGGPHVTEVEGTSFLTGIISWGEECAMKGKYGIYTKVSRYVNWIKEKTKLT,2.1
4,FIXa-Y155F/K228N/K247N/N249S (protein) chain 1: YNSGKLEEFVQGNLERECMEEKCSFEEAREVFENTERTTEFWKQYVDGDQCESNPCLNGGSCKDDINSYECWCPFGFEGKNCELDVTCNIKNGRCEQFCKNSADNKVVCSCTEGYRLAENQKSCEPAVPFPCGRVSVSQTSKLTR chain 2: VVGGEDAKPGQFPWQVVLNGKVDAFCGGSIVNEKWIVTAAHCVETGVNITVVAGEHNIEETEHTEQNRSVIRIIPHHNYNAAINKYNHDIALLELDEPLVLNSYVTPICIADKEYTNIFLKFGSGYVSGWGRVFHKGRSALVLQYLRVPLVDRATCLRSTKFTIYNNMFCAGFHEGGRDSCQGDSGGPHVTEVEGTSFLTGIISWGEECAMKGKYGIYTKVSRYVNWIKEKTKLT,1.4
5,FIXa-R318Y/R338E/R403E/T412A (protein) chain 1: YNSGKLEEFVQGNLERECMEEKCSFEEAREVFENTERTTEFWKQYVDGDQCESNPCLNGGSCKDDINSYECWCPFGFEGKNCELDVTCNIKNGRCEQFCKNSADNKVVCSCTEGYRLAENQKSCEPAVPFPCGRVSVSQTSKLTR chain 2: VVGGEDAKPGQFPWQVVLNGKVDAFCGGSIVNEKWIVTAAHCVETGVKITVVAGEHNIEETEHTEQKRNVIRIIPHHNYNAAINKYNHDIALLELDEPLVLNSYVTPICIADKEYTNIFLKFGSGYVSGWGRVFHKGYSALVLQYLRVPLVDRATCLESTKFTIYNNMFCAGFHEGGRDSCQGDSGGPHVTEVEGTSFLTGIISWGEECAMKGKYGIYTKVSEYVNWIKEKAKLT,> 517
